# Laboratory results taken from the DeepSol protein solubility set.
# Assay: soluble on expression in E. coli; label from the status in PepcDB or PDB records
row,Sequence,soluble on expression in E. coli
1,SQNRVPSSRTVSYFVAKPSSSEMEKLQLGPEDSILRMERIRFADDIPICFEVASIPYSLVSQYGKSEITNSFYKTLEAKSGHKIGHSNQTISAVQASEQIAEYLEIKRGDAILRVRQVSYFENGLPFEYVRTQYAGSRFEFYLEK,soluble
2,SRDGSVAPKERINIRYVPATGDTQEDVELPLSMMVVGDFTARADETPIEERTPINIDKDNFNDVLEGMSPNVKVNVENRLSDEEGAQIGVDLTFQNMKDFSPEAIAKSVPELNSLLELREALVALKGPLGNVPAFRKKIASVLQDEEARKKLLDELSIG,not soluble
3,SRFADAVLDQYIGSIHSLCKDQHGCRFLQKQLDILGSKAADAIFEETKDYTVELMTDSFGNYLIQKLLEEVTTEQRIVLTKISSPHFVEISLNPHGTRALQKLIECIKTDEEAQIVVDSLRPYTVQLSKDLNGNHVIQKCLQRLKPENFQFIFDAISDSCIDIATHRHGCCVLQRCLDHGTTEQCDNLCDKLLALVDKLTLDPFGNYVVQYIITKEAEKNKYDYTHKIVHLLKPRAIELSIHKFGSNVIEKILKTAIVSEPMILEILNNGGETGIQSLLNDSYGNYVLQTALDISHKQNDYLYKRLSEIVAPLLVGPIRNTPHGKRIIGMLHLDS,soluble
4,SSALPRTLGELQLYRVLQRANLLSYYETFIQQGGDDVQQLCEAGEEEFLEIMALVGMATKPLHVRRLQKALREWATNPGLFSQPVPAVPVSSIPLFKISETAG,soluble
5,SSFVGENSGVKMGSEDWEKDEPQCCLEDPAVSPLEPGPSLPAMNFVHTSPKVKNLNPKKFSIHDQDHKVLVLDSGNLIAVPDKNYIRPEIFFALASSLSSASAEKGSPILLGVSKGEFCLYCDKDKGQSHPSLQLKKEKLMKLAAQKESARRPFIFYRAQVGSWNMLESAAHPGWFICTSCNCNEPVGVTDKFENRKHIEFSFQPVCKAEMSPSEVSD,soluble
6,SSSSSSPAIEPDTPDLICQLDNVQGMVDALTCVRWKRHQDALVELSEHGIVLIVEESGCLQAKVYLQRELFTKYEYGAQGRPRFGISLGLLVDCLNTFSSPGHSNTIEIKYPGPDMELLLKSVDTLNSCIYSEIRTRIPETVTWDYNFEQAGIAPLTFTVKSAALKEAIDDLEWPGSSVQISLQKEPPCVIFRGEGHGDLQIDFMYYANTDLLLAFHCDTEVSYGYKYKFLKATTANIPGNVVRENRRSKLTIGRGGMLKVQHLVSVSKALAPQVESAGYQPPSRIAYIEFFVKPEEPAD,soluble
7,STGSKQRSQNRSKTPKNQEALRMANVAENSSSDQRQACKKHELYVSFRDLGWQDWIIAPEGYAAYYCEGECAFPLNSYMNATNHAIVQTLVHFINPETVPKPCCAPTQLNAISVLYFDDSSNVILKKYRNMVVRACGCH,soluble
8,STNLRAWLYQGDHCLESRQSEAGVTRLNGKSPAAVLAEVTTDWREENTPVVMAGMVGSNVGWKVAPYLSVPARFSSIGEQLTSVGDNIWIIPGLCVSHDDNHNVMRGEETQLIGARALAPSSLYVMPGTHCKWVQADSQQINDFRTVMTGELHHLLLNHSLIGAGLPPQENSADAFAAGLERGLNAPAILPQLFEVRASHVLGTLPREQVSEFLSGLLIGAEVASMRDYVTHQHAITLVAGTSLTARYQQAFQAMGCDVAAVAGDTAFQAGIRSIAHAVAN,not soluble
9,STSGANSSGSYLPSEIRSSKIDDNYLKELNEDLKLRKQELLEMLKPLEDKNNLLFQRLMSNLEEKQRSLQIMRQIMAGKGCEESSVMELLKEAEEMKQNLERKNKMLRKEMEMLWNKTFEAEELSDQQKAPQTKNKADLQDGKEKQQRKMEWVKYQEQNNILQNDFHGKVIELRIEALKNYQKANDLKLSLYLQQNFEPMQAFLNLPGSQGIRIV,soluble
10,STVTQKNLFPYGDYLNSSQLHMEPDEVDTLREGEDPADRMHPYLAIYDLQPLKAHPLVFAPGVPVIAQVVGTERYTSGSKVGTCTLYSVRLTHGDFTWTTKKKFRHFQELHRDLQRHKVLMSLLPLARFAVTHSPAREAAAEDIPSLPRGGSEGSARHTASKQKYLENYLNRLLTMSFYRNYHAMTEFLEVSQLSFIPDLGSKGLEGVIRKRSGGHRVPGFTFCGRDQVCYRWSKRWLVVKDSFLLYMRPETGAISFVQLFDPGFEVQVGKRSTETRYGVRIDTSHRSLILKCSSYRQARWWGQEITELAQGSGRDFLQLHQHDSYAPPRPGTLARW,soluble
11,SVGGGGSGGGLLENANPLIYERSGERPVTAGEEDEEVPDSIDAREIFDLIRSINDPEHPLTLEELNVVEQVRIQVSDPESTVAVAFTPTIPHCSMATLIGLSIKVKLLRSLPQRFKMDVHITPGTHASEHAVNKQLADKERVAAALENTHLLEVVNQCLSARS,soluble
12,SYELTQPPSVSVAPGKTARITCGGNNIGSKSVHWYQQKPGQAPVLVVYDDSDRPSGIPERFSGSNSGNTATLTISRVEAGDEADYYCQVWDSSSDYVFGTGTKVTVLGQPKANPTVTLFPPSSEEFQANKATLVCLISDFYPGAVTVAWKADGSPVKAGVETTKPSKQSNNKYAASSYLSLTPEQWKSHRSYSCQVTHEGSTVEKTVAPTECS,soluble
13,SYYHHHHHHHEGVRTMEEECRVLSIQSHVIRGYVGNRAATFPLQVLGFEIDAVNSVQFSNHTGYAHWKGQVLNSDELQELYEGLRLNNMNKYDYVLTGYTRDKSFLAMVVDIVQELKQQNPRLVYVCDPVLGDKWDGEGSMYVPEDLLPVYKEKVVPLADIITPNQFEAELLSGRKIHSQEEALRVMDMLHSMGPDTVVITSSDLPSPQGSNYLIVLGSQRRRNPAGSVVMERIRMDIRKVDAVFVGTGDLFAAMLLAWTHKHPNNLKVACEKTVSTLHHVLQRTIQCAKAQAGEGVRPSPMQLELRMVQSKRDIEDPEIVVQATVL,soluble
